Source: publication doi:10.1101/2022.02.25.482027 (bioRxiv, 2022)
Where a chain is given by its changes, count along the chain named.

Experiments:
Assay in all cases: co-sedimentation
FtsA(E14R) = molecular target: T1, FtsA(E14R) (E. coli, UniProt P0ABH0 1-420, E14R)
T1 sequence: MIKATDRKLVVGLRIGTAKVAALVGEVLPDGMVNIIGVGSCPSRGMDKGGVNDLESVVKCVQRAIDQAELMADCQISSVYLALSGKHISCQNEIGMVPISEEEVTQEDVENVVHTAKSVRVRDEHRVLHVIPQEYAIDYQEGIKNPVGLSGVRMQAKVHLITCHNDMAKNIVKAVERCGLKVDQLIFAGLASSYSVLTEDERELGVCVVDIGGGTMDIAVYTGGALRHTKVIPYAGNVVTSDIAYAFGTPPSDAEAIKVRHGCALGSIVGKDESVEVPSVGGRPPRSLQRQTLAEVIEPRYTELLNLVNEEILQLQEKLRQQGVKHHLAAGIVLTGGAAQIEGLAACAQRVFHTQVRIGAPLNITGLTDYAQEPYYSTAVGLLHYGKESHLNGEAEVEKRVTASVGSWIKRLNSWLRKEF

FtsA(S84L) = molecular target: T2, FtsA(S84L) (E. coli, UniProt P0ABH0 1-420, S84L)
T2 sequence: T1 sequence with R14E, S84L

FtsA(A188V) = molecular target: T3, FtsA(A188V) (E. coli, UniProt P0ABH0 1-420, A188V)
T3 sequence: T1 sequence with R14E, A188V

FtsA(Y375A) = molecular target: T4, FtsA(Y375A) (E. coli, UniProt P0ABH0 1-420, Y375A)
T4 sequence: T1 sequence with R14E, Y375A

- binding result (FtsA(E14R)): binds
- binding result (FtsA(S84L)): binds
- binding result (FtsA(A188V)): binds
- binding result (FtsA(Y375A)): binds
B1: FtsZ (natural protein)
chain: MFEPMELTNDAVIKVIGVGGGGGNAVEHMVRERIEGVEFFAVNTDAQALRKTAVGQTIQIGSGITKGLGAGANPEVGRNAADEDRDALRAALEGADMVFIAAGMGGGTGTGAAPVVAEVAKDLGILTVAVVTKPFNFEGKKRMAFAEQGITELSKHVDSLITIPNDKLLKVLGRGISLLDAFGAANDVLKGAVQGIAELITRPGLMNVDFADVRTVMSEMGYAMMGSGVASGEDRAEEAAEMAISSPLLEDIDLSGARGVLVNITAGFDLRLDEFETVGNTIRAFASDNATVVIGTSLDPDMNDELRVTVVATGIGMDKRPEITLVTNKQVQQPVMDRYQQHGMAPLTQEQKPVAKVVNDNAPQTAKEPDYLDIPAFLRKQAD
